{"source": "patent US20110117206A1", "about": "“PHOSPHOPEPTIDES AND USE OF THE SAME” (PLANT BIOSCIENCE LIMITED, priority 2008, published 2011)", "key": {"[1]": {"assay": "SAXS and structural model of calcium phosphate nanoclusters", "assay_type": "physicochemical", "settings": "from modelling of the structure", "method": "For the OPN 1-149 nanocluster, a description of the peptide segment distribution around the core was considered which is more explicit than that provided by the core-shell model. The simplest block copolymer micelle model has been used in which a corona is formed by Gaussian chains attached by one end to a uniform spherical core. The nanoclusters were prepared either on the SAXS station and measured immediately or were prepared 2 days previously to allow the system to come to equilibrium. The sample was then stored at room temperature and remeasured 5 months later during a later allocation of beamtime. […] The intensity averaged diffusion coefficient, D, was determined with a Malvern Zetasizer Nano instrument.\nThe results of the SAXS measurements on nanocluster sub-samples measured as a function of time after the addition of the urease are summarised in FIGS. 6a and 6b. […] According to the calculated degree of reaction of the phosphate centres and to the analysis of the correlation function given by the dynamic light scattering studies, the equilibrium state has a significant excess of free peptide, the scattering from which, although negligible at low q, has to be taken account of in modelling the SAXS at higher q. […]"}, "[2]": {"assay": "SAXS of free OPN and OPN 1-149 (Guinier, worm-like chain model)", "assay_type": "physicochemical", "settings": "free peptide, 5-15 mg ml^−1, average of three determinations", "method": "In a SAXS experiment, wherein measurements were made on station 2.1 at the CCLRC Daresbury Laboratory, the normalised scattered intensity I(q) was measured. For a dispersion of isotropic, monodisperse particles, I(q) is related to the inter-particle structure factor, S(q) and the particle scattering factor P(q) by\nwhere N is the number of particles of mean excess scattering length density over the solvent Δ ρp, volume Vp and mass M. The scattering wave vector is q=4π sin θ/λo, where θ is half the scattering angle and λo is the wavelength of the X-rays. In a dilute solution where S(q)=1 and a fraction α′ of the peptide chains have formed a polydisperse distribution of nanoclusters, equation (22) becomes\nThe molar volumes of the unphosphorylated residues were taken from Jacrot and Zaccai (Jacrot, B. & Zaccai, G. (1981). Determination of Molecular-Weight by Neutron-Scattering. Biopolymers 20, 2413-2426). The molar volume of ortho-L-phosphoserine was calculated from the unit cell volume of the amino acid, as determined by Sundaralingam (Sundaralingam, M. & Putkey, E. F. (1970). Molecular structures of amino acids and peptides. II. A redetermination of the crystal structure of L-O-serine phosphate. A very short phosphate-carboxyl hydrogen bond. Acta Crystallographica B26, 790-800) and 11 Å^3 subtracted to give the residue volume of 168.7 Å^3. The difference in residue volumes of serine and phosphoserine was then used to calculate a residue volume for phosphothreonine of 191.7 Å^3. The X-ray forward scattering amplitudes of the residues were calculated from the elemental compositions using atomic scattering factors. For OPN 16P 1-149 and OPN 28P 1-262, the scattering length densities in units of […] were calculated to be 12.56 and 12.48, respectively. For the nanoclusters prepared with OPN 16P 1-149 it was assumed that the phosphate moieties of the 10 phosphorylated residues found in the three PCs, were assigned to the core, giving ρshell=12.40×10^10 cm^−2. For the core, a hydrated CaP with the composition given by equation (2) gave ρcore=19.1×10^10 cm^−2. Radii of gyration of the whole protein and N-terminal polypeptide were independent of concentration in the range 5-15 mg ml^−1. For OPN the average of three determinations by the Guinier method was 5.50±0.17 nm and the corresponding value for OPN 1-149 was 2.17±0.24 nm. For OPN with 262 residues, equation (28) predicts a radius of gyration of 5.38 nm and for the N-terminal plasmin peptide of 149 residues, the predicted value is 3.84 nm.\nRandom-coil behavior and the dimensions of chemically unfolded proteins. Proceedings of the National Academy of Sciences of the United States of America 101, 12491-12496). […]"}}, "data": [{"substance": "OPN 1-149: N-terminal osteopontin phosphopeptide fragment from bovine milk, probably formed by plasmin; gel filtration fraction F3a", "values": [{"measurement": "number of peptide chains on a nanocluster", "setting": "[1]", "value": "about 2618"}, {"measurement": "radius of gyration by the Guinier method", "setting": "[2]", "value": "2.17±0.24", "unit": "nm"}]}]}
